# T1: Flag-tagged Pds5b-Ser1177,1182,1209Ala (3A) phosphorylated by Cdk1/2-cyclin A2 (human, UniProt Q9NTI5 1-1447, Ser1177,1182,1209Ala | Ser1177,1182,1209Ala | Ser1177,1182,1209Ala, phosphoserine at 1161 and 1166 (by Cdk1/2-cyclin A2))
# T1 construct: Pds5b, human; also called Pds5b-3A
# T1 sequence (looked up): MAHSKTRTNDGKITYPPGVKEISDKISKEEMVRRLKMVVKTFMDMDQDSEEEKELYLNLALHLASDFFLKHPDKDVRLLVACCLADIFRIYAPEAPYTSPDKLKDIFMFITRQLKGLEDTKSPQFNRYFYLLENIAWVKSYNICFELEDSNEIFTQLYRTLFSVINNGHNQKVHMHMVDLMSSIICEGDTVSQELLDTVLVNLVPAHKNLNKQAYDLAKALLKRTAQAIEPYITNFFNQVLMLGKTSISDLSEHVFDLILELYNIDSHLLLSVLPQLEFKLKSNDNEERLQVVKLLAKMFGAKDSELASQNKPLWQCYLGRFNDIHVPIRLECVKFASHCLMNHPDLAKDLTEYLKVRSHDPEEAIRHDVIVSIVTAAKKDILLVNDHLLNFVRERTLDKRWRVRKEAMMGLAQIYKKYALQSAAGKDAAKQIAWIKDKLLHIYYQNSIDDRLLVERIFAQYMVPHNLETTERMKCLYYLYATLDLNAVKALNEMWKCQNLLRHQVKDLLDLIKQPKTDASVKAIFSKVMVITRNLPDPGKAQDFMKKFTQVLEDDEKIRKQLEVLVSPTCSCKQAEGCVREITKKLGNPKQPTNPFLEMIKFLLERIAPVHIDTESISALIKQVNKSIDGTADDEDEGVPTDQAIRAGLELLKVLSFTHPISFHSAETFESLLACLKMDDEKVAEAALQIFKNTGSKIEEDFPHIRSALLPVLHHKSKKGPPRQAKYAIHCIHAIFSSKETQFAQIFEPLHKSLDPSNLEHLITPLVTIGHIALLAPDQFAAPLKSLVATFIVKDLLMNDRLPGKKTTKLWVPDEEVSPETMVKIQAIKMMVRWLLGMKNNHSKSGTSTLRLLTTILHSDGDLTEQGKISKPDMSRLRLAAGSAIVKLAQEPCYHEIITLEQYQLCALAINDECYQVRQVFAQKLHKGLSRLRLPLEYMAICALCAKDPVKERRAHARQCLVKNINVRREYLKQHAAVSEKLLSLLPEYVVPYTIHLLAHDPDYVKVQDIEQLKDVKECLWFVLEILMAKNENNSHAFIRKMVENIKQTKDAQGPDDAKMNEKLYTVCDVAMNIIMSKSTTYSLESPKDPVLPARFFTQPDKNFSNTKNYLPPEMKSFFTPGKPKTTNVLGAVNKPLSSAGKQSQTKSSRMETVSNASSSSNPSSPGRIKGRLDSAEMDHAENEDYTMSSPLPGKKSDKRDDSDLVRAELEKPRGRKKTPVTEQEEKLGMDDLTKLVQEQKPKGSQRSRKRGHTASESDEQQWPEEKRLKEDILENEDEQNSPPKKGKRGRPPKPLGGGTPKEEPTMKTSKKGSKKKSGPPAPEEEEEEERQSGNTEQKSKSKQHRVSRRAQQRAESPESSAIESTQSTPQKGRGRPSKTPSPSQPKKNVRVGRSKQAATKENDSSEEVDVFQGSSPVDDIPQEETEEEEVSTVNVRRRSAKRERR
# B1: recombinant human Wapl (natural protein, UniProt Q7Z5K2 1-1190, looked up)
# chain: MTSRFGKTYSRKGGNGSSKFDEVFSNKRTTLSTKWGETTFMAKLGQKRPNFKPDIQEIPKKPKVEEESTGDPFGFDSDDESLPVSSKNLAQVKCSSYSESSEAAQLEEVTSVLEANSKISHVVVEDTVVSDKCFPLEDTLLGKEKSTNRIVEDDASISSCNKLITSDKVENFHEEHEKNSHHIHKNADDSTKKPNAETTVASEIKETNDTWNSQFGKRPESPSEISPIKGSVRTGLFEWDNDFEDIRSEDCILSLDSDPLLEMKDDDFKNRLENLNEAIEEDIVQSVLRPTNCRTYCRANKTKSSQGASNFDKLMDGTSQALAKANSESSKDGLNQAKKGGVSCGTSFRGTVGRTRDYTVLHPSCLSVCNVTIQDTMERSMDEFTASTPADLGEAGRLRKKADIATSKTTTRFRPSNTKSKKDVKLEFFGFEDHETGGDEGGSGSSNYKIKYFGFDDLSESEDDEDDDCQVERKTSKKRTKTAPSPSLQPPPESNDNSQDSQSGTNNAENLDFTEDLPGVPESVKKPINKQGDKSKENTRKIFSGPKRSPTKAVYNARHWNHPDSEELPGPPVVKPQSVTVRLSSKEPNQKDDGVFKAPAPPSKVIKTVTIPTQPYQDIVTALKCRREDKELYTVVQHVKHFNDVVEFGENQEFTDDIEYLLSGLKSTQPLNTRCLSVISLATKCAMPSFRMHLRAHGMVAMVFKTLDDSQHHQNLSLCTAALMYILSRDRLNMDLDRASLDLMIRLLELEQDASSAKLLNEKDMNKIKEKIRRLCETVHNKHLDLENITTGHLAMETLLSLTSKRAGDWFKEELRLLGGLDHIVDKVKECVDHLSRDEDEEKLVASLWGAERCLRVLESVTVHNPENQSYLIAYKDSQLIVSSAKALQHCEELIQQYNRAEDSICLADSKPLPHQNVTNHVGKAVEDCMRAIIGVLLNLTNDNEWGSTKTGEQDGLIGTALNCVLQVPKYLPQEQRFDIRVLGLGLLINLVEYSARNRHCLVNMETSCSFDSSICSGEGDDSLRIGGQVHAVQALVQLFLERERAAQLAESKTDELIKDAPTTQHDKSGEWQETSGEIQWVSTEKTDGTEEKHKKEEEDEELDLNKALQHAGKHMEDCIVASYTALLLGCLCQESPINVTTVREYLPEGDFSIMTEMLKKFLSFMNLTCAVGTTGQKSISRVIEYLEHC
# notes: Wapl, human; insert by PCR on human cDNA; Isolated from mitotically arrested cells; also called GFP-SUMOstar-Wapl; source: Hek293T, transiently transfected, taxol-arrested; not shown: GFP, N-terminal, cleaved; SUMOstar, N-terminal, cleaved
# Molecular target: T1, Flag-tagged Pds5b-Ser1177,1182,1209Ala …
# Test: pull-down; Flag-Pds5b variants affinity-purified from Nek2a- and cyclin A2-free prometaphase cells, incubated on the beads with recombinant Nek2a and/or Cdk1/2-cyclin A2 and ATP, washed, then incubated with recombinant Wapl (2 µl) and sororin (0.3 µg) in 15 µl cleavage buffer without ATP, 20 min at 37 °C; immunoblotting
# Details: both partners purified
binder,measurement,value
B1,binding result,binds
